Measured values as given in the supplement of paper PMC10567573.

B1: ZNF449 (parent)
chain: YRHQRLHTGERPYECTVCKKRFTR

Variants of: B1
Assay: protein stability index of a GFP-peptide fusion (GPS, HEK-293T) (PSI 1-6); higher = more stable
Details: c terminus: a fixed tail appended
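Note: lentivirally expressed fusions sorted by FACS into six bins by GFP to DsRed ratio, PSI derived from sequencing read proportions per bin multiplied by bin number.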

Variant	protein stability index
YRHQRLHMGERPYECTVCKKRFTR [T8M]	2.83
YRHQRLHNGERPYECTVCKKRFTR [T8N]	2.56
YRHQRLHKGERPYECTVCKKRFTR [T8K]	2.19
YRHQRLHRGERPYECTVCKKRFTR [T8R]	2.87
YRHQRLHGGERPYECTVCKKRFTR [T8G]	2.38
YRHQRLHSGERPYECTVCKKRFTR [T8S]	2.71
YRHQRLHAGERPYECTVCKKRFTR [T8A]	2.32
YRHQRLHVGERPYECTVCKKRFTR [T8V]	2.29
YRHQRLHQGERPYECTVCKKRFTR [T8Q]	2.59
YRHQRLHTGVRPYECTVCKKRFTR [E10V]	2.4
YRHQRLHTGIRPYECTVCKKRFTR [E10I]	2.32
YRHQRLHTGLRPYECTVCKKRFTR [E10L]	2.13
YRHQRLHTGWRPYECTVCKKRFTR [E10W]	2.34
YRHQRLHTGQRPYECTVCKKRFTR [E10Q]	2.54
YRHQRLHTGYRPYECTVCKKRFTR [E10Y]	3.09
YRHQRLHTGRRPYECTVCKKRFTR [E10R]	2.81
YRHQRLHTGARPYECTVCKKRFTR [E10A]	2.38
YRHQRLHTGCRPYECTVCKKRFTR [E10C]	2.57
YRHQRLHTGERPQECTVCKKRFTR [Y13Q]	2.67
YRHQRLHTGERPDECTVCKKRFTR [Y13D]	2.11
YRHQRLHTGERPWECTVCKKRFTR [Y13W]	2.44
YRHQRLHTGERPVECTVCKKRFTR [Y13V]	2.21
YRHQRLHTGERPRECTVCKKRFTR [Y13R]	2.32
YRHQRLHTGERPHECTVCKKRFTR [Y13H]	2.69

Variant	protein stability index
YRHQRLHTGERPMECTVCKKRFTR [Y13M]	2.69
YRHQRLHTGERPYEETVCKKRFTR [C15E]	3.35
YRHQRLHTGERPYEITVCKKRFTR [C15I]	2.55
YRHQRLHTGERPYESTVCKKRFTR [C15S]	3.02
YRHQRLHTGERPYEGTVCKKRFTR [C15G]	3.7
YRHQRLHTGERPYEQTVCKKRFTR [C15Q]	3.91
YRHQRLHTGERPYETTVCKKRFTR [C15T]	2.88
YRHQRLHTGERPYECTHCKKRFTR [V17H]	2.64
YRHQRLHTGERPYECTNCKKRFTR [V17N]	2.87
YRHQRLHTGERPYECTCCKKRFTR [V17C]	2.65
YRHQRLHTGERPYECTACKKRFTR [V17A]	2.48
YRHQRLHTGERPYECTVMKKRFTR [C18M]	2.56
YRHQRLHTGERPYECTVIKKRFTR [C18I]	3.15
YRHQRLHTGERPYECTVRKKRFTR [C18R]	3.65
YRHQRLHTGERPYECTVKKKRFTR [C18K]	3.77
YRHQRLHTGERPYECTVVKKRFTR [C18V]	3.48
YRHQRLHTGERPYECTVGKKRFTR [C18G]	3.37
YRHQRLHTGERPYECTVWKKRFTR [C18W]	2.21
YRHQRLHTGERPYECTVYKKRFTR [C18Y]	2.96
YRHQRLHTGEGPYECTVCKKRFTR [R11G]	2.71
YRHQRLHTGECPYECTVCKKRFTR [R11C]	3.21
YRHQRLHTGEKPYECTVCKKRFTR [R11K]	2.59
YRHQRLHTGEWPYECTVCKKRFTR [R11W]	2.2
YRHQRLHTGEVPYECTVCKKRFTR [R11V]	1.85

Variant	protein stability index
YRHQRLHTGEQPYECTVCKKRFTR [R11Q]	2.48
YRHQRLHTGEMPYECTVCKKRFTR [R11M]	1.79
YRHQRLHTGETPYECTVCKKRFTR [R11T]	2.1
YNHQRLHTGERPYECTVCKKRFTR [R2N]	1.56
YKHQRLHTGERPYECTVCKKRFTR [R2K]	2.32
YPHQRLHTGERPYECTVCKKRFTR [R2P]	1.63
YAHQRLHTGERPYECTVCKKRFTR [R2A]	1.81
YYHQRLHTGERPYECTVCKKRFTR [R2Y]	2.38
YEHQRLHTGERPYECTVCKKRFTR [R2E]	2.65
YIHQRLHTGERPYECTVCKKRFTR [R2I]	2.65
YTHQRLHTGERPYECTVCKKRFTR [R2T]	1.8
YRHQKLHTGERPYECTVCKKRFTR [R5K]	2.18
YRHQDLHTGERPYECTVCKKRFTR [R5D]	2.06
YRHQFLHTGERPYECTVCKKRFTR [R5F]	2.49
YRHQSLHTGERPYECTVCKKRFTR [R5S]	2.24
YRHQNLHTGERPYECTVCKKRFTR [R5N]	2.21
YRHQELHTGERPYECTVCKKRFTR [R5E]	1.91
YRHQILHTGERPYECTVCKKRFTR [R5I]	1.89
YRHQRLHTGERPYECTVCKKRKTR [F22K]	2.79
YRHQRLHTGERPYECTVCKKRLTR [F22L]	2.87
YRHQRLHTGERPYECTVCKKRYTR [F22Y]	2.84
YRHQRLHTGERPYECTVCKKRQTR [F22Q]	2.66
YRHQRLHTGERPYECTVCKKRVTR [F22V]	2.52
YRHQRLHTGERPYECTVCKKRMTR [F22M]	2.48

Variant	protein stability index
YRDQRLHTGERPYECTVCKKRFTR [H3D]	2.15
YRCQRLHTGERPYECTVCKKRFTR [H3C]	2.4
YRSQRLHTGERPYECTVCKKRFTR [H3S]	2.35
YRTQRLHTGERPYECTVCKKRFTR [H3T]	2.56
YRGQRLHTGERPYECTVCKKRFTR [H3G]	2.28
YRIQRLHTGERPYECTVCKKRFTR [H3I]	2.12
YRAQRLHTGERPYECTVCKKRFTR [H3A]	1.89
YRHQRLHTGERPYECTVCKKEFTR [R21E]	2.39
YRHQRLHTGERPYECTVCKKKFTR [R21K]	2.15
YRHQRLHTGERPYECTVCKKIFTR [R21I]	1.9
YRHQRLHTGERPYECTVCKKCFTR [R21C]	2.01
YRHQRLHTGERPYECTVCKKSFTR [R21S]	1.65
YRHQRLHTGERPYECTVCKKGFTR [R21G]	1.96
YRHQRLHTGERPYECTVCKKDFTR [R21D]	2.46
YRHQRLHTGERPYECTVCKKWFTR [R21W]	2.18
YRHQRLHTGERPYECTVCKKVFTR [R21V]	2
YRHQRLHTGERPYECTVCKKNFTR [R21N]	1.93
YRHQRLHTGERPYQCTVCKKRFTR [E14Q]	2.54
YRHQRLHTGERPYKCTVCKKRFTR [E14K]	2.97
YRHQRLHTGERPYVCTVCKKRFTR [E14V]	2.84
YRHQRLHTGERPYMCTVCKKRFTR [E14M]	2.58
YRHQRLHTGERPYLCTVCKKRFTR [E14L]	2.38
YRHQRLHTGERPYGCTVCKKRFTR [E14G]	2.42
YRHQRLHTGERPYICTVCKKRFTR [E14I]	2.77

Variant	protein stability index
YRHQRLHTGERPYCCTVCKKRFTR [E14C]	2.57
YRHQRLHTGERPYFCTVCKKRFTR [E14F]	2.11
YRHQRLHTGERPYSCTVCKKRFTR [E14S]	2.69
YRHQRLHTGERPYECTVCKKRFTW [R24W]	1.87
YRHQRLHTGERPYECTVCKKRFTF [R24F]	2.57
YRHQRLHTGERPYECTVCKKRFTE [R24E]	2.78
YRHQRLHTGERPYECTVCKKRFTY [R24Y]	2.1
YRHQRLHTGERPYECTVCKKRFTK [R24K]	3.32
YRHQRLHTGERPYECTVCKKRFTV [R24V]	2.51
YRHQRLHTGERPYECTVCKKRFTN [R24N]	2.47
YRHQRLHTGERSYECTVCKKRFTR [P12S]	2.34
YRHQRLHTGERKYECTVCKKRFTR [P12K]	2.62
YRHQRLHTGERRYECTVCKKRFTR [P12R]	2.98
YRHQRLHTGERLYECTVCKKRFTR [P12L]	2.22
YRHQRLHTGERVYECTVCKKRFTR [P12V]	2.87
YRHQRLHTGERPYECKVCKKRFTR [T16K]	2.78
YRHQRLHTGERPYECEVCKKRFTR [T16E]	2.25
YRHQRLHTGERPYECLVCKKRFTR [T16L]	2.08
YRHQRLHTGERPYECRVCKKRFTR [T16R]	2.51
YRHQRLHTGERPYECQVCKKRFTR [T16Q]	2.27
YRHQRLHTGERPYECMVCKKRFTR [T16M]	1.98
YRHQRLHTPERPYECTVCKKRFTR [G9P]	2.04
YRHQRLHTAERPYECTVCKKRFTR [G9A]	2.26
YRHQRLHTWERPYECTVCKKRFTR [G9W]	1.91

Variant	protein stability index
YRHQRLHTQERPYECTVCKKRFTR [G9Q]	2.1
YRHQRLHTLERPYECTVCKKRFTR [G9L]	2.21
YRHQRLHTYERPYECTVCKKRFTR [G9Y]	2.1
YRHQRLHTSERPYECTVCKKRFTR [G9S]	2.33
YRHQRLHTKERPYECTVCKKRFTR [G9K]	2.42
YRHQRLHTFERPYECTVCKKRFTR [G9F]	2.01
YRHQRLHTEERPYECTVCKKRFTR [G9E]	2.31
YRHQRLHTGERPYECTVCKKRFHR [T23H]	2.78
YRHQRLHTGERPYECTVCKKRFRR [T23R]	2.85
YRHQRLHTGERPYECTVCKKRFYR [T23Y]	2.78
YRHQRLHTGERPYECTVCKKRFAR [T23A]	2.93
YRHQRLHTGERPYECTVCKKRFMR [T23M]	2.85
YRHQRLHTGERPYECTVCKKRFKR [T23K]	2.54
YRHQRLHTGERPYECTVCKKRFCR [T23C]	2.7
YRHQRLHTGERPYECTVCKKRFIR [T23I]	2.76
YRHQRLHTGERPYECTVCKKRFNR [T23N]	2.28
YRHQRLHTGERPYECTVCKKRFWR [T23W]	2.13
YRHQRLHTGERPYECTVCKKRFPR [T23P]	2.45
YRHQRLHTGERPYECTVCKKRFER [T23E]	2.67
YRHQRLHTGERPYECTVCNKRFTR [K19N]	2.19
YRHQRLHTGERPYECTVCDKRFTR [K19D]	1.96
YRHQRLHTGERPYECTVCGKRFTR [K19G]	2.15
YRHQRLHTGERPYECTVCPKRFTR [K19P]	2.69
YRHQRLHTGERPYECTVCMKRFTR [K19M]	2.12

Variant	protein stability index
YRHQRLHTGERPYECTVCCKRFTR [K19C]	2.12
YRHYRLHTGERPYECTVCKKRFTR [Q4Y]	1.78
YRHHRLHTGERPYECTVCKKRFTR [Q4H]	3.41
YRHARLHTGERPYECTVCKKRFTR [Q4A]	2.44
YRHFRLHTGERPYECTVCKKRFTR [Q4F]	1.88
YRHMRLHTGERPYECTVCKKRFTR [Q4M]	1.73
YRHIRLHTGERPYECTVCKKRFTR [Q4I]	1.93
YRHPRLHTGERPYECTVCKKRFTR [Q4P]	2.03
YRHVRLHTGERPYECTVCKKRFTR [Q4V]	2.13
YRHDRLHTGERPYECTVCKKRFTR [Q4D]	2.22
YRHQRRHTGERPYECTVCKKRFTR [L6R]	2.7
YRHQRQHTGERPYECTVCKKRFTR [L6Q]	2.38
YRHQRDHTGERPYECTVCKKRFTR [L6D]	2.37
YRHQRKHTGERPYECTVCKKRFTR [L6K]	2.34
YRHQRNHTGERPYECTVCKKRFTR [L6N]	2.63
YRHQRPHTGERPYECTVCKKRFTR [L6P]	2.4
YRHQRWHTGERPYECTVCKKRFTR [L6W]	2.38
YRHQRHHTGERPYECTVCKKRFTR [L6H]	2.73
YRHQRYHTGERPYECTVCKKRFTR [L6Y]	2.74
GRHQRLHTGERPYECTVCKKRFTR [Y1G]	2.21
VRHQRLHTGERPYECTVCKKRFTR [Y1V]	2.45
RRHQRLHTGERPYECTVCKKRFTR [Y1R]	3.05
IRHQRLHTGERPYECTVCKKRFTR [Y1I]	2.55
DRHQRLHTGERPYECTVCKKRFTR [Y1D]	2.58

Variant	protein stability index
CRHQRLHTGERPYECTVCKKRFTR [Y1C]	3.93
PRHQRLHTGERPYECTVCKKRFTR [Y1P]	2.7
ERHQRLHTGERPYECTVCKKRFTR [Y1E]	3.16
QRHQRLHTGERPYECTVCKKRFTR [Y1Q]	2.88
YRHQRLHTGERPYECTVCKYRFTR [K20Y]	2.46
YRHQRLHTGERPYECTVCKMRFTR [K20M]	2.25
YRHQRLHTGERPYECTVCKWRFTR [K20W]	1.61
YRHQRLHTGERPYECTVCKSRFTR [K20S]	2.08
YRHQRLHTGERPYECTVCKNRFTR [K20N]	2.1
YRHQRLHTGERPYECTVCKERFTR [K20E]	2.1
YRHQRLVTGERPYECTVCKKRFTR [H7V]	2.18
YRHQRLFTGERPYECTVCKKRFTR [H7F]	1.46
YRHQRLTTGERPYECTVCKKRFTR [H7T]	2.35
YRHQRLITGERPYECTVCKKRFTR [H7I]	2.16
YRHQRLPTGERPYECTVCKKRFTR [H7P]	1.84
YRHQRLLTGERPYECTVCKKRFTR [H7L]	2.15
YRHQRLMTGERPYECTVCKKRFTR [H7M]	1.97
YRHQRLCTGERPYECTVCKKRFTR [H7C]	2.65
YRHQRLETGERPYECTVCKKRFTR [H7E]	2.09
YRHQRLWTGERPYECTVCKKRFTR [H7W]	3.01
